Patent US20090081786A1, “Peptide sequences for modulation of protein kinase C” (priority 2006, published 2009)

Biological target: T1, annexin V (Homo sapiens, UniProt P08758)
T1 sequence (P08758 1-320): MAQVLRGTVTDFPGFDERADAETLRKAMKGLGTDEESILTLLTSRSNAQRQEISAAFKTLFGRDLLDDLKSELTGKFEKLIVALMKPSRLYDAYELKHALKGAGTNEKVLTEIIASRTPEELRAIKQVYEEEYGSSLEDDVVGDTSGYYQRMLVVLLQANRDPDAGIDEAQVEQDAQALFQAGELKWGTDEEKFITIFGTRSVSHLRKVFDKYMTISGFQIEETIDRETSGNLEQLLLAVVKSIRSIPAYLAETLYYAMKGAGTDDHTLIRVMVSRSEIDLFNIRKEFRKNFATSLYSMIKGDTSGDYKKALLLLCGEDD
Assay: overlay binding assay on immobilized annexin V
Settings: immobilized annexin V on nitrocellulose, overlay 37° C. 30 min, Western blotting
Protocol: A binding assay was performed in vitro, using an immobilized annexin V with the δ-PKC, δ-V1 (SEQ ID NO:18) (the C2 domain of δ-PKC), δ-V5 (SEQ ID NO:19), and ε-V1 (SEQ ID NO:20) peptides. These domains are recognized in the art as participating in protein-protein interactions.
10 μg of the annexin V was separated on 12% SDS-PAGE gel and transferred to nitrocellulose, and then cut into strips. The strips were incubated with blocking buffer (50 mM Tris pH 7.5, 200 mM NaCl, 3% bovine serum albumin, 0.1% PEG20). The strips were then incubated in overlay buffer (50 mM Tris pH 7.5, 200 mM NaCl, 1% PEG20, 12 mM β-mercaptoethanol) in the presence where appropriate of 30 μg crude bacterial cell lysate containing fusion proteins of myelin basic protein (MBP)-delta V1 PKC (MBP-δV1), glutathione-S-transferase-delta V5 PKC (GST-δV5), and full length sequences of δ-PKC or rat purified ε-PKC (SEQ ID NO:21) at 37° C. for 30 min. The strips where then washed with wash buffer (50 mM Tris pH 7.5, 200 mM NaCl, 0.1% PEG20, 12 mM β-mercaptoethanol), and then incubated with fixative (0.2% formaldehyde in PBS) and neutralizing solution (0.2M glycine in PBS) at room temperature 20 min each. After washing with buffer, the strips were probed with antibodies according to the overlay protein, and resulting bands were visualized using ECL Western blotting.

B1: ε-V1: V1 region of ε-PKC (SEQ ID NO:20) (protein, listed as Homo sapiens)
chain: MVVFNGLLKIKICEAVSLKPTAWSLRHAVGPRPQTFLLDPYIALNVDDSRIGQTATKQKTNSPAWHDEFVTDVCNGRKIELAVFHDAPIGYDDFVANCTIQFEELLQNGSRHFEDWIDLEPEGKVYVIIDLSGSSGEAPKDNEE
For B1, the “binding to annexin V” value was “did not bind to the annexin V”.

B2: δ-V1: V1/C2 domain of δ-PKC (SEQ ID NO:18), used as myelin basic protein fusion (protein)
chain: MAPFLRISFNSYELGSLQAEDDASQPFCAVKMKEALTTDRGKTLVQKKPTMYPEWKSTFDAHIYEGRVIQIVLMRAAEDPMSEVTVGVSVLAERCKKNNGKAEFWLDLQPQAKVLMCVQYFLEDGDCKQSMRSEEEAMFPTMNRRGAIKQAKIHYIKNHE
modifications: left off: large carriers
In the case of B2, the “binding to annexin V” value is reported as “bind to the annexin V”.

B3: δ-PKC: full length δ-protein kinase C (SEQ ID NO:16) (protein, listed as Homo sapiens)
chain: MAPFLRISFNSYELGSLQVEDEASQPFCAVKMKEALSTERGKTLVQKKPTMYPEWKTTFDAHIYEGRVIQIVLMRAAEDPVSEVTVGVSVLAERCKKNNGKAEFWLDLQPQAKVLMCVQYFLEDGDCKQSMRSEEEAKFPTMNRRGAIKQAKIHYIKNHEFIATFFGQPTFCSVCKEFVWGLNKQGYKCRQCNAAIHKKCIDKIIGRCTGTATNSRDTIFQKERFNIDMPHRFKVYNYMSPTFCDHCGSLLWGLVKQGLKCEDCGMNVHHKCREKVANLCGINQKLLAEALNQVTQRSSRKLDTTESVGIYQGFEKKPEVSGSDILDNNGTYGKIWEGSTRCTLENFTFQKVLGKGSFGKVLLAELKGKDKYFAIKCLKKDVVLIDDDVECTMVEKRVLALAWESPFLTHLICTFQTKDHLFFVMEFLNGGDLMFHIQDKGRFELYRATFYAAEIICGLQFLHSKGIIYRDLKLDNVMLDRDGHIKIADFGMCKENIFGEGRASTFCGTPDYIAPEILQGLKYSFSVDWWSFGVLLYEMLIGQSPFHGDDEDELFESIRVDTPHYPRWITKESKDIMEKLFERDPDKRLGVTGNIRIHPFFKTINWSLLEKRKVEPPFKPKVKSPSDYSNFDPEFLNEKPQLSFSDKNLIDSMDQEAFHGFSFVNPKFEQFLDI
In the case of B3, the “binding to annexin V” value is reported as “bind to the annexin V”.
